Our source for the % Abundance and relative percent abundance values is US20180224449A1.

One assay has as its target biotinylated Opr86 extracellular loop synthetic peptide. Description: solution biopanning on biotinylated Opr86 loop peptide in Bushnell-Haas pH 8.5 with 1% Jet-A, three rounds; share of clones.
As for “M13 phage displaying OPP1 (PRIRKSH) (peptide)”, the % Abundance came out at 3%. “M13 phage displaying OPP2 (MHNLNLL) (peptide)” had a % Abundance of 2%. Same read-out and setting: next, “M13 phage displaying OPP3 (LPSTIHR) (peptide)”: 2%; “M13 phage displaying OPP4 (LRPLMNR) (peptide)”: 3%; “M13 phage displaying OPP5 (IITMKRR) (peptide)”: 3%. The same measure, in the same setting: as for “M13 phage displaying OPP6 (RKKSRIR) (peptide)”, the figure is 2%.

The target in another assay is biotinylated OprF1 synthetic peptide (P. aeruginosa). Description: pooled monoclonal phages pulled down on biotinylated OprF1 in Bushnell-Haas with 1% Jet-A; unamplified eluate, share of 30 sequenced clones.
Consider “M13 phage displaying the PPKINIM peptide”, for which the relative percent abundance is 3%.
